Source: patent US20230218710A1 (COHBAR, published 2023)
Square brackets hold non-standard residues; d marks the D form. Primed or numbered codes have the meaning given here. Ends that are not written are not given here. PEG12′ = not defined here

Legend:
Assay in all cases: cell-based or functional assay
[1] = target: T1, Apelin Receptor (APJ) stably overexpressed in CHO-K1 AGTRL1 Gi cells (UniProt P35414 1-380, limits assumed)
T1 sequence (looked up): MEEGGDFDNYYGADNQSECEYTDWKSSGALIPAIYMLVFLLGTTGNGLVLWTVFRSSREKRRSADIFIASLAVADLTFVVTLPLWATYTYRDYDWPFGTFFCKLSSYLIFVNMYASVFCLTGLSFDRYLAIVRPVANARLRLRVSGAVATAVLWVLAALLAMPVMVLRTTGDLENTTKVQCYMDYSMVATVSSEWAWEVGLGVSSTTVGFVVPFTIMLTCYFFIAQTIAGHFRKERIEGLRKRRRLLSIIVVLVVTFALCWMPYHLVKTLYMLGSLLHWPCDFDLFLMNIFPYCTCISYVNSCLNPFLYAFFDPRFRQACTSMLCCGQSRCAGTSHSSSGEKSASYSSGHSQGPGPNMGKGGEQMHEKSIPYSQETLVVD

[2] = target: ProLink tagged human APJ (Apelin Receptor) in CHO-K1 AGTRL1 β-Arrestin cells (human, UniProt P35414 1-380)
[3] = target: T1, Apelin Receptor (APJ) stably …; remark: listed apart in the source

Row | Binder | IC50 (M), inhibition of forskolin-stimulated cAMP accumulation [1] [M] | β-Arrestin recruitment, Percent of Apelin-13 Control Activity (10 µM peptide) [2] [%] | inhibition of forskolin-induced cAMP, Percent of Pyr-Apelin-13 Control Activity (10 µM peptide) [3] [%]
1 | RRIIGIVFQSLCG[dA] [SEQ ID NO: 43] | 2.07e-06 |  | 
2 | RXMMGMVFQSLCGA ((Aib) = aminoisobutyric acid at position 2; C-terminal (dA) = D-alanine) [SEQ ID NO: 34] |  | 8 | 61
3 | RRMMGMVYQCLCG[dA] (cysteine pairing not given here) [SEQ ID NO: 10] |  | 3 | 70
4 | RMMGMVFQ [SEQ ID NO: 51] |  | 0 | 24
5 | RRLLGLVEQSLCG[dA] [SEQ ID NO: 40] |  | 0 | 19
6 | RMMGMVF [SEQ ID NO: 50] |  | 0 | 8
7 | RRMMGMVFQCLEG[dA] [SEQ ID NO: 14] |  | 0 | 39
8 | KRRMMGMVFQSLCGA ((PEG12) at the N-terminal K; C-terminal (dA) = D-alanine) [SEQ ID NO: 36] | 1.6e-06 | 63 | 101
9 | RRMMGMVEQCLCG[dA] (cysteine pairing not given here) [SEQ ID NO: 12] |  | -1 | 24
10 | MRRMMGMVFQCLCGL [SEQ ID NO: 7] | 1.24e-06 | 91 | 109
11 | MMGMVFQSL [SEQ ID NO: 48] |  | 1 | 15
12 | RRMMGMVFQELCG[dA] [SEQ ID NO: 13] |  | 1 | 49
13 | RRMMGMVEQSLCG[dA] [SEQ ID NO: 38] |  | 0 | 12
14 | RRMMGMVFQSLCG[dA] (also: acetate salt, HCl salt) [SEQ ID NO: 15] | 4.49e-06 | 40 | 105
15 | MMGMVFQ [SEQ ID NO: 46] |  | 0 | 11
16 | RRLLGLVFQSLEG[dA] [SEQ ID NO: 41] |  | 0 | 15
17 | RRMMGMVFQSLEG[dA] [SEQ ID NO: 39] |  | 0 | -13
18 | MMGMV [SEQ ID NO: 44] |  | 0 | 5
19 | MMGMVF [SEQ ID NO: 45] |  | 0 | 10
20 | MMGMVFQS [SEQ ID NO: 47] |  | 1 | -6
21 | KRRLLGLVFQSLCGA ((PEG12) at the N-terminal K; C-terminal (dA) = D-alanine) [SEQ ID NO: 37] | 2.5e-06 | 12 | 53
22 | [PEG12′]KRRIIGIVFQCLCG[dA] (cysteine pairing not given here) [SEQ ID NO: 42] | 4.38e-06 | 8 | 33
23 | RXLLGLVFQSLCGA ((Aib) = aminoisobutyric acid at position 2; C-terminal (dA) = D-alanine) [SEQ ID NO: 35] |  | 17 | 8
24 | RRMMGMVAQCLCG[dA] (cysteine pairing not given here) [SEQ ID NO: 11] |  | 0 | 49
25 | MMGMVFQSLCG[dA] [SEQ ID NO: 49] |  | 1 | 14
